Measurements as given in IntAct's records for PubMed 29892012.

B1: Protein VAC14 homolog (Homo sapiens), Q08AM6 (parent)
chain: MNPEKDFAPLTPNIVRALNDKLYEKRKVAALEIEKLVREFVAQNNTVQIKHVIQTLSQEFALSQHPHSRKGGLIGLAACSIALGKDSGLYLKELIEPVLTCFNDADSRLRYYACEALYNIVKVARGAVLPHFNVLFDGLSKLAADPDPNVKSGSELLDRLLKDIVTESNKFDLVSFIPLLRERIYSNNQYARQFIISWILVLESVPDINLLDYLPEILDGLFQILGDNGKEIRKMCEVVLGEFLKEIKKNPSSVKFAEMANILVIHCQTTDDLIQLTAMCWMREFIQLAGRVMLPYSSGILTAVLPCLAYDDRKKSIKEVANVCNQSLMKLVTPEDDELDELRPGQRQAEPTPDDALPKQEGTASGGPDGSCDSSFSSGISVFTAASTERAPVTLHLDGIVQVLNCHLSDTAIGMMTRIAVLKWLYHLYIKTPRKMFRHTDSLFPILLQTLSDESDEVILKDLEVLAEIASSPAGQTDDPGPLDGPDLQASHSELQVPTPGRAGLLNTSGTKGLECSPSTPTMNSYFYKFMINLLKRFSSERKLLEVRGPFIIRQLCLLLNAENIFHSMADILLREEDLKFASTMVHALNTILLTSTELFQLRNQLKDLKTLESQNLFCCLYRSWCHNPVTTVSLCFLTQNYRHAYDLIQKFGDLEVTVDFLAEVDKLVQLIECPIFTYLRLQLLDVKNNPYLIKALYGLLMLLPQSSAFQLLSHRLQCVPNPELLQTEDSLKAAPKSQKADSPSIDYAELLQHFEKVQNKHLEVRHQRSGRGDHLDRRVVL
partner: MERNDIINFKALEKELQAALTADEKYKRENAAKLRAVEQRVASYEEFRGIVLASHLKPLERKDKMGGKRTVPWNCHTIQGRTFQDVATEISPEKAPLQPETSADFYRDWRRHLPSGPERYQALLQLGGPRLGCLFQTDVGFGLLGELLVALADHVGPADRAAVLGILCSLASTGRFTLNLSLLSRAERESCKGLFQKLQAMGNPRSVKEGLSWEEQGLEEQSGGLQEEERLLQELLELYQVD
B2: Genetic suppressor element 1 (Homo sapiens), Q14687 (parent)
chain: MKGMSHEPKSPSLGMLSTATRTTATVNPLTPSPLNGALVPSGSPATSSALSAQAAPSSSFAAALRKLAKQAEEPRGSSLSSESSPVSSPATNHSSPASTPKRVPMGPIIVPPGGHSVPSTPPVVTIAPTKTVNGVWRSESRQDAGSRSSSGGRERLIVEPPLPQEKAGGPAIPSHLLSTPYPFGLSPSSVVQDSRFPPLNLQRPVHHVVPPSTVTEDYLRSFRPYHTTDDLRMSSLPPLGLDPATAAAYYHPSYLAPHPFPHPAFRMDDSYCLSALRSPFYPIPTPGSLPPLHPSAMHLHLSGVRYPPELSHSSLAALHSERMSGLSAERLQMDEELRREREREREREREREADREREKEREREREKEREQEKEREREKERERELERQREQRAREKELLAAKALEPSFLPVAELHGLRGHATEERGKPSEQLTPTRAEKLKDAGLQAPKPVQHPLHPVPTPHHTVPSLISNHGIFSLPSSSAATALLIQRTNEEEKWLARQRRLRQEKEDRQSQVSEFRQQVLEQHLDMGRPPVPAEAEHRPESTTRPGPNRHEPGGRDPPQHFGGPPPLISPKPQLHAAPTALWNPVSLMDNTLETRRAESHSLHSHPAAFEPSRQAAVPLVKVERVFCPEKAEEGPRKREPAPLDKYQPPPPPPREGGSLEHQPFLPGPGPFLAELEKSTQTILGQQRASLPQAATFGELSGPLKPGSPYRPPVPRAPDPAYIYDEFLQQRRRLVSKLDLEERRRREAQEKGYYYDLDDSYDESDEEEVRAHLRCVAEQPPLKLDTSSEKLEFLQLFGLTTQQQKEELVAQKRRKRRRMLRERSPSPPTIQSKRQTPSPRLALSTRYSPDEMNNSPNFEEKKKFLTIFNLTHISAEKRKDKERLVEMLRAMKQKALSAAVADSLTNSPRDSPAVSLSEPATQQASLDVEKPVGVAASLSDIPKAAEPGKLEQVRPQELSRVQELAPASGEKARLSEAPGGKKSLSMLHYIRGAAPKDIPVPLSHSTNGKSKPWEPFVAEEFAHQFHESVLQSTQKALQKHKGSVAVLSAEQNHKVDTSVHYNIPELQSSSRAPPPQHNGQQEPPTARKGPPTQELDRDSEEEEEEDDEDGEDEEEVPKRKWQGIEAVFEAYQEHIEEQNLERQVLQTQCRRLEARHYSLSLTAEQLSHSVAELRSQKQKMVSERERLQAELDHLRKCLALPAMHWPRGYLKGYPR
partner: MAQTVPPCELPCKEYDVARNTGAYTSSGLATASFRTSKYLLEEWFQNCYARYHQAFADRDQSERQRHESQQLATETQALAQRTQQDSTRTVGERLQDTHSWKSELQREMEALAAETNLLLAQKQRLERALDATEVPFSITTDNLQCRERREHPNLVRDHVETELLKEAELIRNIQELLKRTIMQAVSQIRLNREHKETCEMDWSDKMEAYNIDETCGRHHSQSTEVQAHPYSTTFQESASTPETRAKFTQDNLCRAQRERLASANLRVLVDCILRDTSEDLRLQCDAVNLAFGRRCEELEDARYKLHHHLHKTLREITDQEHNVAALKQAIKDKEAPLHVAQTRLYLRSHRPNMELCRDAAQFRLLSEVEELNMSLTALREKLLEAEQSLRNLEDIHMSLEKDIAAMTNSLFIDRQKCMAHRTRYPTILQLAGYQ
B3: Ribosome assembly protein METTL17, mitochondrial (Homo sapiens), Q9H7H0 (parent)
chain: MAAALKCLLTLGRWCPGLGVAPQARALAALVPGVTQVDNKSGFLQKRPHRQHPGILKLPHVRLPQALANGAQLLLLGSAGPTMENQVQTLTSYLWSRHLPVEPEELQRRARHLEKKFLENPDLSQTEEKLRGAVLHALRKTTYHWQELSYTEGLSLVYMAARLDGGFAAVSRAFHEIRARNPAFQPQTLMDFGSGTGSVTWAAHSIWGQSLREYMCVDRSAAMLVLAEKLLKGGSESGEPYIPGVFFRQFLPVSPKVQFDVVVSAFSLSELPSKADRTEVVQTLWRKTGHFLVLVENGTKAGHSLLMDARDLVLKGKEKSPLDPRPGFVFAPCPHELPCPQLTNLACSFSQAYHPIPFSWNKKPKEEKFSMVILARGSPEEAHRWPRITQPVLKRPRHVHCHLCCPDGHMQHAVLTARRHGRDLYRCARVSSWGDLLPVLTPSAFPPSTAQDPSES
partner: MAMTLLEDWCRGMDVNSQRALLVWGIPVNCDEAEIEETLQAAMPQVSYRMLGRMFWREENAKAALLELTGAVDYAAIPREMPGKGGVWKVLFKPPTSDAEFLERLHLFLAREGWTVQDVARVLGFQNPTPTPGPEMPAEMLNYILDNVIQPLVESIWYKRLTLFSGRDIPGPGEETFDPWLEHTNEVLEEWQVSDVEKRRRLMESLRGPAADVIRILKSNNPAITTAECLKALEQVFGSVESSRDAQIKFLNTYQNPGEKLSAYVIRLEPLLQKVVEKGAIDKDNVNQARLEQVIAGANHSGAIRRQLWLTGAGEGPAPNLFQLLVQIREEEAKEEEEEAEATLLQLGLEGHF
B4: Coiled-coil domain-containing protein 120 (Homo sapiens), Q96HB5-4 (parent)
chain: MRREPRYQGQVGPDIHTDSERTLSSHQPRPLDSTKMEVKGQLISSPTFNAPAALFGEAAPQVKSERLRGLLDRQRTLQEALSLKLQELRKVCLQEAELTGQLPPECPLEPGERPQLVRRRPPTARAYPPPHPNQAHHSLCPAEELALEALEREVSVQQQIAAAARRLALAPDLSTEQRRRRRQVQADALRRLHELEEQLRDVRARLGLPVLPLPQPLPLSTGSVITTQGVCLGMRLAQLSQEDVVLHSESSSLSESGASHDNEEPHGCFSLAERPSPPKAWDQLRAVSGGSPERRTPWKPPPSDLYGDLKSRRNSVASPTSPTRSLPRSASSFEGRSVPATPVLTRGAGPQLCKPEGLHSRQWSGSQDSQMGFPRADPASDRASLFVARTRRSNSSEALLVDRAAGGGAGSPPAPLAPSASGPPVCKSSEVLYERPQPTPAFSSRTAGPPDPPRAARPSSAAPASRGAPRLPPVCGDFLLDYSLDRGLPRSGGGTGWGELPPAAEVPGPLSRRDGLLTMLPGPPPVYAADSNSPLLRTKDPHTRATRTKPCGLPPEAAEGPEVHPNPLLWMPPPTRIPSAGERSGHKNLALEGLRDWYIRNSGLAAGPQRRPVLPSVGPPHPPFLHARCYEVGQALYGAPSQAPLPHSRSFTAPPVSGRYYADFLYPPELSARLSDLTLEGEQSSSSDTQTPGTLV
partner: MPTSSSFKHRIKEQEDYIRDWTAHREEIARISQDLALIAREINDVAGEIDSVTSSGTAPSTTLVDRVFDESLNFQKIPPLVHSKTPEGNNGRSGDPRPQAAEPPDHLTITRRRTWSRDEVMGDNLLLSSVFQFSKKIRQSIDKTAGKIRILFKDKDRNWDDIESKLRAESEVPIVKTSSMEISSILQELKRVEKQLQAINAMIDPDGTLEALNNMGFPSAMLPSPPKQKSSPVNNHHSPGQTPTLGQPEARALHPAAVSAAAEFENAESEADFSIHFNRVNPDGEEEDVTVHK
B5: Zyxin (Homo sapiens), Q15942 (parent)
chain: MAAPRPSPAISVSVSAPAFYAPQKKFGPVVAPKPKVNPFRPGDSEPPPAPGAQRAQMGRVGEIPPPPPEDFPLPPPPLAGDGDDAEGALGGAFPPPPPPIEESFPPAPLEEEIFPSPPPPPEEEGGPEAPIPPPPQPREKVSSIDLEIDSLSSLLDDMTKNDPFKARVSSGYVPPPVATPFSSKSSTKPAAGGTAPLPPWKSPSSSQPLPQVPAPAQSQTQFHVQPQPQPKPQVQLHVQSQTQPVSLANTQPRGPPASSPAPAPKFSPVTPKFTPVASKFSPGAPGGSGSQPNQKLGHPEALSAGTGSPQPPSFTYAQQREKPRVQEKQHPVPPPAQNQNQVRSPGAPGPLTLKEVEELEQLTQQLMQDMEHPQRQNVAVNELCGRCHQPLARAQPAVRALGQLFHIACFTCHQCAQQLQGQQFYSLEGAPYCEGCYTDTLEKCNTCGEPITDRMLRATGKAYHPHCFTCVVCARPLEGTSFIVDQANRPHCVPDYHKQYAPRCSVCSEPIMPEPGRDETVRVVALDKNFHMKCYKCEDCGKPLSIEADDNGCFPLDGHVLCRKCHTARAQT
partner: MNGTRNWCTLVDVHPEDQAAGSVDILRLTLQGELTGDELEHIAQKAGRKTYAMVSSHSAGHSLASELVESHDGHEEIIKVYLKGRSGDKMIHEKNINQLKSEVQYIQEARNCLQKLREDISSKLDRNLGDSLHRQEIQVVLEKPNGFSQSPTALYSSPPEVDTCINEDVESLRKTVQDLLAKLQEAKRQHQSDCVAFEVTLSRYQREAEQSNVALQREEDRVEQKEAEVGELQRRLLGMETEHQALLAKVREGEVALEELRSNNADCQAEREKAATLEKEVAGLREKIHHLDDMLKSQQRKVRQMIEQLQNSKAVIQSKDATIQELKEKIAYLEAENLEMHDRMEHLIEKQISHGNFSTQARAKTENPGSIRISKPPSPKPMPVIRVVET

Variants of: B1
Conditions: with daa19_human DNAAF19, Q8IW40
A127S was tested, and the “effect of a mutation on the interaction” value was “with no effect”.

Variants of: B2
Conditions: with tekt4_human TEKT4, Q8WW24
E368K was tested, and the “effect of a mutation on the interaction” value was “with no effect”.

Variants of: B2
Conditions: with tekt4_human TEKT4, Q8WW24
Remark: another data set of the same source
R503Q was tested, and the “effect of a mutation on the interaction” value was “with no effect”.

Variants of: B3
Conditions: with pnma1_human PNMA1, Q8ND90
In the case of R212H, the “effect of a mutation on the interaction” value is reported as “with no effect”.

Variants of: B4
Conditions: with CEP170P1, Q96L14
With R346W the “effect of a mutation on the interaction” value was “with no effect”.

Variants of: B5
Conditions: with tuft1_human TUFT1, Q9NNX1
R167G was tested, and the “effect of a mutation on the interaction” value was “with no effect”.
